In patent US20210072252A1:

T1: Leu
T1 sequence (peptide): LGMMGSSC


What was measured:
Leu = biological target: T1, Leu; assay: single-molecule TIRF, Cy5-labelled protein on peptide immobilized on nanogel
[1] = biological target: peptide with N-terminal phosphotyrosine; assay: biolayer interferometry (Blitz), peptide-coated sensor, NAAB in 1x PBS, 1:1 fit, kd/ka

Counts (Leu)	Kd [1]	Binder
49 counts	–	engineered MetRS domain (Met NAAB), GST-MetRS fusion labeled with Cy5 (designed binder, not shown: a dimerising Fc or GST, Cy5 fluorophore on lysine side chains) AKKILVTCASPYANGSIHLGHMLEHIQADVWVRYQRMRGHEVNFICADDAHGTPIMLKAQQLGITPEQMIGEMSQEHQTDFAGFNISYDNYHSTHSEENRQLSELIYSRLKENGFIKNRTISQLYDPEKGMFLPDRFVKGTCPKCKSPDQYGDNCEVCGATYSPTELIEPKSVVSGATPVMRDSEHFFFDLPSFSEMLQAWTRSGALQEQVANKMQEWFESGLQQWDISRDAPYFGFEIPNAPGKYFYVWLDAPIGLMGSFKNLCDKRGDSVSFDEYWKKDSTAELYHFIGKGIVYFLSLFWPAMLEGSNFRKPSNLFVHGYVTVNGAKMSKSRGTFIKASTWLNHFDADSLRYYYTAKLSSRIDDIDLNLEDFVQRVNADIVNKVVNLASRNAGFINKRFDGVLASELADPQLYKTFTDAAEVIGEAWESREFGKAVREIMALADLANRYVDEQAPWVVAKQEGRDADLQAICSMGINLFRVLMTYLKPVLPKLTERAEAFLNTELTWDGIQQPLLGHKVNPFKALYNRIDMRQVEALVEASK
–	1070 nM	Phosphotyrosine NAAB (designed binder) MDEFEMIKRNTSEIISELREVLKKDEKSALIGFEPSGKIHLGHYLQKKMIDLQNAGFDIIIPLADLHAYLNQKGELDEIRKIGDYNKKVFEAMLKAKYVYGSEFQLDKYTLNVYRLALKTTLKARRSMELIAREDENPVAEVIYPIMQVNGCHYKGVDVAVGGMEQRKIMLARELLPKKVVCIHPVLTGLDGEGKMSSSGNFIAVDDSPEEIRAFKKAYCPAGVVEGNPEIAKYFLEYPLTIKPEKFGGDLTVNSYEESLFKNKELHPMDLKAVAEELIKILEPIRK
